Patent publication US20240424117A1, “Paclitaxel Prodrug, Preparation Method and Application Thereof” (WEST CHINA HOSPITAL, SICHUAN UNIVERSITY, priority 2023, published 2024)

What was measured:
Assay type in all cases: physicochemical
[1] = Particle size, particle size distribution and zeta potential of micelles by dynamic light scattering; conditions: prodrug micelles in aqueous solution, 25° C.; for PDI / Size(nm): DLS
Protocol: The particle size, particle size distribution and zeta potential of micelles were measured by Zetasizer Nano ZS Dynamic light scattering (DLS) potentiometer (Malvern, UK) at 25° C. and 90° scattering angle.

[2] = Transmission electron microscopy of micellar morphology; conditions: TEM (FIG. 3)
Protocol: A small amount of micellar solution fully mixed under ultrasonic was added dropwise onto the copper mesh coated with Formvar film, and then dyed with 1% (w/v) phosphotungstic acid staining solution for 3 min. Subsequently, the excess liquid was absorbed with filter paper, and the copper mesh was allowed to dry naturally. Then, Tecnai G2 F20 S-TWIN transmission electron microscopy (FEI Corporation, USA) was used to observe the micellar morphology, and the acceleration voltage was 75 KV.

[3] = Study on the stability of micelles in vitro (PBS or added glutathione, DLS); conditions: GSH added, 37° C. shaker, DLS (FIG. 5)
Protocol: In order to study the stability of micelles in vitro, the micellar solution was dropped into PBS simulating the human physiological environment, or a certain amount of glutathione was added. All samples were placed in a 37° C. constant temperature shaker (110 rpm), and the stability of micelles was studied by dynamic light scattering at the pre-determined time points.

[4] = Release performance of prodrug (dialysis, HPLC determination of paclitaxel); conditions: for time to almost complete release of paclitaxel: 37° C.; for change of release rate after the addition of GSH: with GSH (10 mM) versus without
Protocol: The testing instrument was Agilent 1260 series (USA), with a reversed phase C18 column (4.6×100 mm). The mobile phase was acetonitrile/water (80/20), the column temperature was 30° C., the flow rate was 1.0 mL/min, and the detection wavelength was 227 nm.
Firstly, HPLC was used to detect the response of PTX in this mobile phase. After accurately weighing a certain amount of paclitaxel, PTX was prepared with the mixed solvent of acetonitrile and ultrapure water (9/1, v/v) into a series of standard solutions at different concentrations. Linear regression was performed between the measured response peak area A and concentration C, to obtain the standard curve of the PTX solution. The curve equation was fitted, and the concentration-peak area curve equation of PTX was Y=25.025X, with a correlation coefficient of R^2=0.9996.
3 mL of drug-loaded micelles were loaded into a dialysis bag (MWCO=1000), and the release medium was PBS containing 30% ethanol (V/V) (pH 5.0 or 7.4). The release of paclitaxel from self-assembled nanoparticles of prodrug was investigated with or without the addition of glutathione (10 mM GSH). The specific procedures are as follows: 3 mL of prodrug nanoparticle solution (1 mg/mL) was placed into a dialysis bag (MW1000) and added to 30 mL of the release media, and then the entire system was transferred into a constant temperature shaker (37° C., 110 rpm). 1 mL of release solution was collected at different pre-determined time points, taking 3 parallel samples at each time point. After sampling, the same volume of pure PBS or PBS containing 10 mM GSH (10 Mm) was supplemented, and the drug concentration was determined by HPLC. The cumulative release was calculated using the following formula:
[formula] • wherein R is the cumulative release amount; Vi is the total volume of the solution before the i-th sampling; Ci is the total concentration of the solution before the i-th sampling; Vsj is the jth sampling volume; Cj is the total concentration of the solution before the jth sampling, i=2, 3, 4 . . .; j=i−1.

[5] = acidic pH 5.0, with GSH (10 mM)
[6] = neutral pH 7.4, with GSH (10 mM)

Row | Substance | Zeta Potential(mV) [1] | PDI [1] | Size(nm) [1] | micelle morphology and dispersion [2] | micelle state (particle size and PDI) after addition of glutathione [3] | time to almost complete release of paclitaxel [4, 5] | time to almost complete release of paclitaxel [4, 6] | change of release rate after the addition of GSH [4]
1 | paclitaxel-adipic acid-polyethylene glycol-RGD peptide [PAPR] | −9.91 ± 0.3 mV | 0.110 ± 0.002 | 117.93 ± 5.57 nm |  |  |  |  | 
2 | paclitaxel-dithiodipropionic acid-polyethylene glycol-RGD Peptide [PDPR] | −7.38 ± 0.8 mV | 0.065 ± 0.012 | 114.63 ± 1.53 nm | uniform particle size and dispersion | significantly disintegrated | 144 h | 120 h | significantly accelerated
3 | paclitaxel-dithiodipropionic acid-polyethylene glycol [PDP] | −18.1 ± 0.8 mV | 0.166 ± 0.003 | 129.07 ± 1.76 nm |  | significantly disintegrated | 144 h | 120 h | significantly accelerated
4 | paclitaxel-adipic acid-polyethylene glycol [PAP] | −13.2 ± 0.6 mV | 0.103 ± 0.037 | 109.43 ± 0.94 nm |  |  |  |  | 
